For 35 variants, abundance fitness results are on record in the Human Domainome abundance scans (Beltran et al. 2025).

To fix the notation:
B1: POU domain, class 3, transcription factor 2, residues 262 to 338; numbered along this chain, P20265 (parent)
chain: EDTPTSDDLEQFAKQFKQRRIKLGFTQADVGLALGTLYGNVFSQTTICRFEALQLSFKNMCKLKPLLNKWLEEADSS

± gives the uncertainty stated by the source.

The variants in this data set derive from B1. As to the kind of experiment: abundance fitness (aPCA) (normalised: wild type 0, dead -1); higher = more abundant; growth selection in yeast, the domain comes from the species named. The following applies: Homo sapiens.
Consider EDTATSDDLEQFAKQFKQRRIKLGFTQADVGLALGTLYGNVFSQTTICRFEALQLSFKNMCKLKPLLNKWLEEADSS, for which the abundance fitness is -0.03 ± 0.036. On to EDTMTSDDLEQFAKQFKQRRIKLGFTQADVGLALGTLYGNVFSQTTICRFEALQLSFKNMCKLKPLLNKWLEEADSS, for which the abundance fitness was 0.068 ± 0.053. In the case of EDTCTSDDLEQFAKQFKQRRIKLGFTQADVGLALGTLYGNVFSQTTICRFEALQLSFKNMCKLKPLLNKWLEEADSS, the abundance fitness is 0.108 ± 0.062. The same measure for EDTITSDDLEQFAKQFKQRRIKLGFTQADVGLALGTLYGNVFSQTTICRFEALQLSFKNMCKLKPLLNKWLEEADSS: 0.096 ± 0.08; for EDTYTSDDLEQFAKQFKQRRIKLGFTQADVGLALGTLYGNVFSQTTICRFEALQLSFKNMCKLKPLLNKWLEEADSS: -0.102 ± 0.12; for EDTFTSDDLEQFAKQFKQRRIKLGFTQADVGLALGTLYGNVFSQTTICRFEALQLSFKNMCKLKPLLNKWLEEADSS: 0.149 ± 0.11. The value for EDTLTSDDLEQFAKQFKQRRIKLGFTQADVGLALGTLYGNVFSQTTICRFEALQLSFKNMCKLKPLLNKWLEEADSS was 0.164 ± 0.036.

As to EDTKTSDDLEQFAKQFKQRRIKLGFTQADVGLALGTLYGNVFSQTTICRFEALQLSFKNMCKLKPLLNKWLEEADSS, the abundance fitness was found to be 0.063 ± 0.052. The same measure for EDTRTSDDLEQFAKQFKQRRIKLGFTQADVGLALGTLYGNVFSQTTICRFEALQLSFKNMCKLKPLLNKWLEEADSS: -0.027 ± 0.033; for EDTNTSDDLEQFAKQFKQRRIKLGFTQADVGLALGTLYGNVFSQTTICRFEALQLSFKNMCKLKPLLNKWLEEADSS: -0.095 ± 0.079. The value for EDTHTSDDLEQFAKQFKQRRIKLGFTQADVGLALGTLYGNVFSQTTICRFEALQLSFKNMCKLKPLLNKWLEEADSS was 0.075 ± 0.06; that for EDTVTSDDLEQFAKQFKQRRIKLGFTQADVGLALGTLYGNVFSQTTICRFEALQLSFKNMCKLKPLLNKWLEEADSS was 0.061 ± 0.034; that for EDTWTSDDLEQFAKQFKQRRIKLGFTQADVGLALGTLYGNVFSQTTICRFEALQLSFKNMCKLKPLLNKWLEEADSS was 0.091 ± 0.044. With EDTGTSDDLEQFAKQFKQRRIKLGFTQADVGLALGTLYGNVFSQTTICRFEALQLSFKNMCKLKPLLNKWLEEADSS, the abundance fitness is -0.01 ± 0.035. The same measure for EDTDTSDDLEQFAKQFKQRRIKLGFTQADVGLALGTLYGNVFSQTTICRFEALQLSFKNMCKLKPLLNKWLEEADSS: 0.029 ± 0.057. The same measure for EDTQTSDDLEQFAKQFKQRRIKLGFTQADVGLALGTLYGNVFSQTTICRFEALQLSFKNMCKLKPLLNKWLEEADSS: 0.053 ± 0.052; for EDTSTSDDLEQFAKQFKQRRIKLGFTQADVGLALGTLYGNVFSQTTICRFEALQLSFKNMCKLKPLLNKWLEEADSS: -0.018 ± 0.039; for EDTETSDDLEQFAKQFKQRRIKLGFTQADVGLALGTLYGNVFSQTTICRFEALQLSFKNMCKLKPLLNKWLEEADSS: 0.002 ± 0.045. For the variant EDRPTSDDLEQFAKQFKQRRIKLGFTQADVGLALGTLYGNVFSQTTICRFEALQLSFKNMCKLKPLLNKWLEEADSS, the abundance fitness was -0.086 ± 0.029. The same measure for EDPPTSDDLEQFAKQFKQRRIKLGFTQADVGLALGTLYGNVFSQTTICRFEALQLSFKNMCKLKPLLNKWLEEADSS: -0.205 ± 0.054; for EDQPTSDDLEQFAKQFKQRRIKLGFTQADVGLALGTLYGNVFSQTTICRFEALQLSFKNMCKLKPLLNKWLEEADSS: -0.091 ± 0.045; for EDYPTSDDLEQFAKQFKQRRIKLGFTQADVGLALGTLYGNVFSQTTICRFEALQLSFKNMCKLKPLLNKWLEEADSS: -0.029 ± 0.063. EDSPTSDDLEQFAKQFKQRRIKLGFTQADVGLALGTLYGNVFSQTTICRFEALQLSFKNMCKLKPLLNKWLEEADSS: the abundance fitness was -0.042 ± 0.036. For the variant EDMPTSDDLEQFAKQFKQRRIKLGFTQADVGLALGTLYGNVFSQTTICRFEALQLSFKNMCKLKPLLNKWLEEADSS, the abundance fitness came out at 0.117 ± 0.049. In the case of EDWPTSDDLEQFAKQFKQRRIKLGFTQADVGLALGTLYGNVFSQTTICRFEALQLSFKNMCKLKPLLNKWLEEADSS, the abundance fitness is -0.202 ± 0.042. Regarding EDNPTSDDLEQFAKQFKQRRIKLGFTQADVGLALGTLYGNVFSQTTICRFEALQLSFKNMCKLKPLLNKWLEEADSS, the abundance fitness is -0.203 ± 0.05.

Turning to EDTPTSLDLEQFAKQFKQRRIKLGFTQADVGLALGTLYGNVFSQTTICRFEALQLSFKNMCKLKPLLNKWLEEADSS, the abundance fitness is -0.434 ± 0.31.

Turning to EDTPTSEDLEQFAKQFKQRRIKLGFTQADVGLALGTLYGNVFSQTTICRFEALQLSFKNMCKLKPLLNKWLEEADSS, the abundance fitness was -0.087 ± 0.13. EDTPTSSDLEQFAKQFKQRRIKLGFTQADVGLALGTLYGNVFSQTTICRFEALQLSFKNMCKLKPLLNKWLEEADSS: the abundance fitness was 0.054 ± 0.45. As for EDTPTSGDLEQFAKQFKQRRIKLGFTQADVGLALGTLYGNVFSQTTICRFEALQLSFKNMCKLKPLLNKWLEEADSS, the abundance fitness came to 0.064 ± 0.12.

Take EDTPTSVDLEQFAKQFKQRRIKLGFTQADVGLALGTLYGNVFSQTTICRFEALQLSFKNMCKLKPLLNKWLEEADSS: the abundance fitness worked out at 0.021 ± 0.094. As for EDTPTSQDLEQFAKQFKQRRIKLGFTQADVGLALGTLYGNVFSQTTICRFEALQLSFKNMCKLKPLLNKWLEEADSS, the abundance fitness was 0.211 ± 0.17. The value for EDTPTSADLEQFAKQFKQRRIKLGFTQADVGLALGTLYGNVFSQTTICRFEALQLSFKNMCKLKPLLNKWLEEADSS was -0.154 ± 0.1; that for EDTPTSWDLEQFAKQFKQRRIKLGFTQADVGLALGTLYGNVFSQTTICRFEALQLSFKNMCKLKPLLNKWLEEADSS was 0.143 ± 0.17. In the case of EDTPTSPDLEQFAKQFKQRRIKLGFTQADVGLALGTLYGNVFSQTTICRFEALQLSFKNMCKLKPLLNKWLEEADSS, the abundance fitness was -0.143 ± 0.3.
